From patent US20200407442A1 (WUXI BIOLOGICS IRELAND, published 2020)
Residue numbers refer to the chain shown, from its start. One block for each binder: values may come before it.

How the values were obtained:
[1] = molecular target: T1, full-length human LAG-3 on cells (human, UniProt P18627 23-525); test: FACS on human LAG-3 transfectant cells after incubation of the antibody in human serum at 37 C, PE-labeled goat anti-human IgG, MFI
T1 construct: Expressed on Flp-In-293, CHO or 293F transfectants; also called hPro1.FL; cell surface human LAG-3
T1 sequence: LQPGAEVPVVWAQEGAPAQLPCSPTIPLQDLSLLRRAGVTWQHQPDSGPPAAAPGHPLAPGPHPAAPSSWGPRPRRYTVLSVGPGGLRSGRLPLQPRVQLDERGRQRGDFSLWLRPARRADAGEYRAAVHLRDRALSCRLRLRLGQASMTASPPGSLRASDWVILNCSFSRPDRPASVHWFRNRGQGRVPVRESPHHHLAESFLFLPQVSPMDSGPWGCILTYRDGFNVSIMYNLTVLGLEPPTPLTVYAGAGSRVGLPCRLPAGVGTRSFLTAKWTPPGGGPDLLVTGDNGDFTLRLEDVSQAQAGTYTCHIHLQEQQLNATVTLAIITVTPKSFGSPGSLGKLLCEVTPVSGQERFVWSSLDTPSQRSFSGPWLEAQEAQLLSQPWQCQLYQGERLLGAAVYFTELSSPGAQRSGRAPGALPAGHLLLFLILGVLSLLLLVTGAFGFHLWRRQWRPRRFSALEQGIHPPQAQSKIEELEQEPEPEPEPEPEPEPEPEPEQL
Procedure: The lead Abs were incubated in freshly isolated human serum (serum content>95%) at 37° C. On indicated time points, an aliquot of serum treated sample was removed from the incubator and snap frozen in liquid N₂, and then stored at −80° C. until ready for test. The samples were quickly thawed immediately prior to the stability test. Human LAG-3 transfectant cells were incubated with various concentrations of lead antibodies at 4° C. for 1 hour. PE-labeled goat anti-human IgG was used to detect the binding of lead antibodies onto the cells. MFI of the cells was measured by a flow cytometer (BD FACSCanto II) and analyzed by FlowJo.

[2] = molecular target: T2, human LAG-3-ECD.D12.mFc mutant V61A (human, UniProt P18627 37-252); test: ELISA, antibody coated, LAG-3 D12.mFc mutant in supernatant, normalised to control mutants
T2 construct: Alanine scanning mutant; construct limits as for m26
T2 chain: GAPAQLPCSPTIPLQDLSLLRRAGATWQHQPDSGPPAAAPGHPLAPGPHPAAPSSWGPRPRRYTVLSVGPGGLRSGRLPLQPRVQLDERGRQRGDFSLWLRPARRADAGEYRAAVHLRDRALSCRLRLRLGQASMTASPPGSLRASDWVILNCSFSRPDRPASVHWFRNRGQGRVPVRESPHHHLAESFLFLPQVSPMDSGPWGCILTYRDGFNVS
Procedure: (§1) For ELISA binding assay, the antibody 1.53.3-uAb-IgG4k or 3.40.19-uAb-hIgG4L (2 μg/mL) was coated in plates. After interacting with the supernatant that contains quantified LAG-3 mutants or human LAG-3-ECD.D12.mFc protein, HRP conjugated anti-mFc antibody (1:5000; Bethyl, USA) was added as a detection antibody. Absorbance was normalized according to the average absorbance of control mutants. After setting an additional cutoff to the binding fold change (<0.75), the final determined epitope residues were identified.

[3] = molecular target: T3, human LAG-3-ECD.D12.mFc mutant G37A (human, UniProt P18627 38-252); test: as above
T3 construct: Alanine scanning mutant; construct limits as for m26
T3 sequence: T2 chain with G1A, A25V
Procedure: as §1

[4] = molecular target: T4, human LAG-3-ECD.D12.mFc mutant G145A (human, UniProt P18627 37-252); test: as above
T4 construct: Alanine scanning mutant; construct limits as for m26
T4 chain: T2 chain with A25V, G109A
Procedure: as §1

[5] = molecular target: T5, human LAG-3-ECD.D12.mFc mutant L153A (human, UniProt P18627 37-252); test: as above
T5 construct: Alanine scanning mutant; construct limits as for m26
T5 chain: T2 chain with A25V, L117A
Procedure: as §1

[6] = molecular target: T6, human LAG-3-ECD.D12.mFc mutant Y147A (human, UniProt P18627 37-252); test: as above
T6 construct: Alanine scanning mutant; construct limits as for m26
T6 chain: T2 chain with A25V, Y111A
Procedure: as §1

EC50 (read off the curve) [1]: ~0.8 nM
Fold Change [2]: 0.514
Fold Change [3]: 0.284
Fold Change [4]: 0.466
Fold Change [5]: 0.632
Fold Change [6]: 0.19
B1: 3.40.19-uAb-IgG4L (antibody, V domains shown)
VH: QLQLQESGPGLVKPSETLSLTCTVSGDSISSTSYYWGWIRQPPGKGLEWIGSFYYSGSTYYNPSLKSRVTISVDTSKNQFSLKLNSVTAADTAVYYCARMQLWSYDVDVWGQGTTVTVSS
VL: QSALTQPASVSGSPGQSITISCTGTSSDVGGYDYVAWYQQHPGKVPKLMIYDVSERPSGVSNRFSGSKSGNTASLTISGLQAEDEADYYCSSYTSTTTLVVFGGGTKLSVL
notes: Fully human antibody from OMT rats; IgG4 lambda by its name; also called 3.40.19-uAb-hIgG4L

EC50 (read off the curve) [1]: ~3 nM
Fold Change [2]: 0.637
Fold Change [3]: 0.558
Fold Change [4]: 0.692
Fold Change [5]: 0.749
Fold Change [6]: 0.637
B2: 1.53.3-uAb-IgG4k (antibody, V domains shown)
VH: QVQLQQWGAGLLKPSETLSLTCGVYGGSFSGYYWSWIRQPPGMGLEWIGEINHRGNTNYNPSLKSRVTISEDTSKNQFSLRLSSVTAADTAVYFCTRGEDYSDYDYYGDFWGQGTLVTVSS
VL: EIVLTQSPATLSLSQGERATLSCRASQSISSYLAWYQQKPGQAPRLLIYAASNRATGIPARFSGSGSGTDFTLTISSLEPEDFAIYYCQQRSNWPLTFGGGTKVEIK
notes: Fully human antibody from OMT rats; IgG4 kappa by its name
